Earlier results on 1 substance are cited in paper PMC3667765.

For orientation: Kd means the free concentration of one partner at which half of the binding sites on the other are occupied at equilibrium, for simple one-to-one binding.

The data set deals with E-cadherin (Homo sapiens) (UniProt P12830).
Chain of UniProt P12830 (P12830 155-709): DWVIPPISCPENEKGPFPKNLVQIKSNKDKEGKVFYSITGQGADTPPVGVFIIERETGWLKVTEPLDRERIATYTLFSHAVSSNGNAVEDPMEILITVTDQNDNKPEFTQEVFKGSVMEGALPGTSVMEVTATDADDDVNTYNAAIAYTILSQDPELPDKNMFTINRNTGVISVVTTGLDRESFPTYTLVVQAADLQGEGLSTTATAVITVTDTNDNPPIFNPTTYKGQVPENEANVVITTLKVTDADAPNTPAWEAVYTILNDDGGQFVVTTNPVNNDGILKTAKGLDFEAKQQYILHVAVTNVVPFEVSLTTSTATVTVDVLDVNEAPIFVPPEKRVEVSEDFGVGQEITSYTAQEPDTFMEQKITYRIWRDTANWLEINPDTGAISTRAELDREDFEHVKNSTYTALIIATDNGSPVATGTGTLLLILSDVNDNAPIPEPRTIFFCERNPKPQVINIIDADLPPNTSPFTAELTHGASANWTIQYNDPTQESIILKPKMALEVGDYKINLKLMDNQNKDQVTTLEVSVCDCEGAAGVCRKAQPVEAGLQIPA

For the substance Internalin A (from UniProt P0DJM0), the dissociation constant Kd is 8 µM.
